Test results published in patent US9187762B2, “Compositions and methods comprising sequences having hydroxyphenylpyruvate dioxygenase (HPPD) activity” (PIONEER HI-BRED INTERNATIONAL, INC., priority 2010, dated 2015).

Legend:
soybean HPPD = assay: HPPD activity, coupled assay with HGD; substrate saturation kinetics (KM, kcat); type: biochemical
Source text: (§1) HPPD catalyzes the conversion of 4-hydroxyphenylpyruvate (HPP) to homogentisate. See, FIG. 1. […] However, the product of the ensuing reaction in tyrosine metabolism, maleylacetoacetate, absorbs strongly at 320 nm. Furthermore, the enzyme catalyzing that reaction is also a dioxygenase having similar mechanism and buffer requirements as HPPD, making homogentisate dioxygenase (HGD) an ideal partner in a coupled assay, as shown.
(§2) The HDG gene from Pseudomonas aeruginosa (Amaya (2004) Arch Biochem Biophys 421, 135-142) was cloned into pVER7062 and electroporated into E. coli strain BL21(DE3). The enzyme was produced by methods similar to those described for HPPD. The purified enzyme has a KM for homogentisate of 23 uM and a kcat of 100/sec, properties highly suited for instantly converting the homogentisate produced by HPPD to maleylacetoacetate.
(§3) HPPD activity was measured by placing an aliquot (e.g., 6 ul) of the substrate HPP at 50-fold the desired final concentration into the wells of a low UV-absorbing assay plate. Reactions were started by adding a mixture (e.g., 294 ul) containing 25 mM Hepes, pH 7, 2 mM ascorbate, 10 uM FeSO4, 1 to 100 uM HPP, 50 nM HGD and 5 to 240 nM HPPD. Absorbance at 320 nm was monitored continuously in a plate-reading spectrophotometer (Spectramax, Molecular Devices).
(§4) The catalytic performance of wild-type HPPD and variants generated by shuffling was assessed by determining the substrate saturation parameters. The Michaelis-Menten kinetics protocol of the Spectramax software was customized for HPP concentrations ranging from 3.33 uM to 100 uM, or up to 1 mM if required. Reaction rates were measured as described above for each concentration of HPP. The software returns values of KM and Vmax using the Lineweaver-Burke transformation of the Michaelis-Menten equation.
The amino acid substitutions identified during the shuffling and mutagenesis of the maize HPPD gene can be made at analogous positions in other HPPD proteins to improve their insensitivity toward HPPD-inhibiting herbicides. The sequences of native and improved maize HPPD were aligned with those of sorghum (Genbank accession number XP002453359) and soybean (Genbank accession number ABQ96868), and the motif substitutions were designed accordingly, as shown in FIG. 14. The genes designed for improvement were synthesized commercially, inserted into vector pVER7062 and expressed, purified and evaluated as in Example 1.

G. max HPPD = assay: ON/OFF rate ratio insensitivity parameters of HPPD with maize motif substitutions; type: biochemical, Glycine max; settings: for OFF ratio / ON ratio / ON × OFF Fold vs wt / ON × OFF Value: soy HPPD
Description: [formula] Higher KD (reduced affinity or increased insensitivity) can be attained with a numerically smaller ON rate, a larger OFF rate or both. […] The ratio of the reaction rate with inhibitor to that without inhibitor during the 70 to 90 second interval of the reaction was termed the “ON rate ratio”. […] Incubations with the same concentrations of enzyme but no mesotrione were done in parallel. After 1 hr at room temperature, 5 to 10 ul of the enzyme-inhibitor complex was dispensed into the wells of the assay plate. Reactions were started with the addition of 290 to 295 ul of 25 mM Hepes, pH 7, 2 mM ascorbate, 10 uM FeSO4, 100 uM HPP and 50 nM HGD. The reactions were monitored at 320 nm for 12 min. Reaction velocity accelerates as inhibitor is released from the enzyme until a steady state is reached, during which the reaction velocity is constant. The ratio of the steady state rate in mixtures containing mesotrione (or other herbicidal inhibitor) to the initial velocity of mixtures lacking inhibitor is termed the “OFF rate ratio”. Another parameter to record is the time span required for the reactions with inhibitor to reach the steady state. […] It is not certain that the steady state attained in the OFF rate reactions actually represents an equilibrium where OFF rates are now equal to ON rates. Because substrate and inhibitors bind in the same site, the high concentration of substrate present may competitively trap the inhibitor and prevent it from binding again. To be sure that improvement in ON rates is being taken into account, the ON and OFF rate ratios were multiplied together and the product is termed the “insensitivity parameter”.

maize HPPD [1] = assay: HPPD activity, coupled assay with HGD at 320 nm; substrate saturation kinetics (KM, kcat); type: biochemical
Source text: as §1, §2, §3, §4

maize HPPD [2] = assay: ON rate ratio, OFF rate ratio and insensitivity parameter with herbicidal HPPD inhibitors; type: biochemical; settings: for ON rate ratio: mesotrione 4 uM, 100 uM HPP, 70 to 90 second interval
Source text: To devise a parameter for detecting changes in inhibitor binding affinity, KD, one can utilize the relationship between KD and the rates of binding and release of inhibitor to and from the enzyme. [formula] Higher KD (reduced affinity or increased insensitivity) can be attained with a numerically smaller ON rate, a larger OFF rate or both. […] The ratio of the reaction rate with inhibitor to that without inhibitor during the 70 to 90 second interval of the reaction was termed the “ON rate ratio”. […] Incubations with the same concentrations of enzyme but no mesotrione were done in parallel. After 1 hr at room temperature, 5 to 10 ul of the enzyme-inhibitor complex was dispensed into the wells of the assay plate. Reactions were started with the addition of 290 to 295 ul of 25 mM Hepes, pH 7, 2 mM ascorbate, 10 uM FeSO4, 100 uM HPP and 50 nM HGD. The reactions were monitored at 320 nm for 12 min. Reaction velocity accelerates as inhibitor is released from the enzyme until a steady state is reached, during which the reaction velocity is constant. The ratio of the steady state rate in mixtures containing mesotrione (or other herbicidal inhibitor) to the initial velocity of mixtures lacking inhibitor is termed the “OFF rate ratio”. Another parameter to record is the time span required for the reactions with inhibitor to reach the steady state. […] It is not certain that the steady state attained in the OFF rate reactions actually represents an equilibrium where OFF rates are now equal to ON rates. Because substrate and inhibitors bind in the same site, the high concentration of substrate present may competitively trap the inhibitor and prevent it from binding again. To be sure that improvement in ON rates is being taken into account, the ON and OFF rate ratios were multiplied together and the product is termed the “insensitivity parameter”. […] The variants in Table 9 were grouped according to the parameter in which they are improved compared to wild type. The sequence positions are numbered according to the wild-type maize amino acid sequence of SEQ ID 1. Some substitutions are effective in multiple contexts, as discussed in the next section.

T0 soybean plants = assay: Herbicide spray test of transgenic T0 HPPD soy plants using mesotrione, visual injury; type: in vivo; settings: mesotrione 210 g ai/ha, eight days after treatment
Source text: (1987) Nature 327:70-73, U.S. Pat. No. 4,945,050) using a DuPont Biolistic PDS1000/He instrument. A selectable marker gene used to facilitate soybean transformation was a chimeric gene composed of the 35S promoter from Cauliflower Mosaic Virus (Odell et al. (1985) Nature 313:810-812), the hygromycin phosphotransferase gene from plasmid pJR225 (from E coli; Gritz et al. (1983) Gene 25:179-188) and the 3' region of the nopaline synthase gene from the T-DNA of the Ti plasmid of Agrobacterium tumefaciens. Another selectable marker used to facilitate soybean transformation was a chimeric gene composed of the S-adenosylmethionine synthase (SAMS) promoter (U.S. Pat. […] Pat. […] The selection agent used during the transformation process was either hygromycin or chlorsulfuron depending on the marker gene present. […] Pat. […] (1995) Genetics 139 (2), 921-939; Genbank L05363). In specific constructs, the SCP1 promoter of U.S. Pat. No. 6,072,050 was employed. Bombardments were carried out with linear DNA fragments purified away from any bacterial vector DNA. […] Bombarded soybean embryogenic suspension tissue was cultured for one week in the absence of selection agent, then placed in liquid selection medium for 6 weeks. […] Putative transgenic suspension culture tissue was maintained in selection medium for 3 weeks to obtain enough tissue for plant regeneration. Suspension tissue was matured for 4 weeks using standard procedures; matured somatic embryos were desiccated for 4-7 days and then placed on germination induction medium for 2-4 weeks. Germinated plantlets were transferred to soil in cell pack trays for 3 weeks for acclimatization. Plantlets were potted to 10-inch pots in the greenhouse for evaluation of herbicide resistance. […] Some T0 plants were not sprayed with herbicide and were all advanced to the next generation for testing.

[3] = substrate HPP, E. coli-expressed enzyme

B1: Soy wt: wild-type soybean HPPD protein, SEQ ID NO: 2, expressed in E. coli (protein)
chain: MAIPMCNEIQAQAQAQAQAQPGFKLVGFKNFVRTNPKSDRFQVNRFHHIEFWCTDATNASRRFSWGLGMPIVAKSDLSTGNQIHASYLLRSGDLSFLFSAPYSPSLSAGSSAASSASIPSFDAATCLAFAAKHGFGVRAIALEVADAEAAFSASVAKGAEPASPPVLVDDRTGFAEVRLYGDVVLRYVSYKDAAPQAPHADPSRWFLPGFEAAASSSSFPELDYGIRRLDHAVGNVPELAPAVRYLKGFSGFHEFAEFTAEDVGTSESGLNSVVLANNSETVLLPLNEPVYGTKRKSQIETYLEHNEGAGVQHLALVTHDIFTTLREMRKRSFLGGFEFMPSPPPTYYANLHNRAADVLTVDQIKQCEELGILVDRDDQGTLLQIFTKPVGDRPTIFIEIIQRIGCMVEDEEGKVYQKGACGGFGKGNFSELFKSIEEYEKTLEAKRTA
modifications: Glycine max
Soybean HPPD; [3]
  Km: 3 µM
  kcat: 100 min⁻¹

B2: GE010082: Glycine max variant HPPD with maize motif substitutions, SEQ ID NO: 458 (protein)
chain: MPIPMCNEIQAQAQAQAQAQPGFKLVGFKNFVRTNPKSDRFQVNRFHHIEFWCTDATNASRRFSWGLGMPIVAKSDLSTGNQIHASYLLRSGDLSFLFSAPYSPSLSAGSSAASSASIPSFDAATCLAFAAKHGFGVRAIALEVADAEAAFSASVAKGAEPASPPVLVDDRTGFAEVRLYGDVVLRYVSYKDAAPQAPHADPSRWFLPGFEAAASSSSFPELDYGIRRLDHAVGNVPELAPAVAYMAGFSGFHEFAEFTAEDVGTSESGLNSMALANNSETVLLPLNEPVYGTKRKSQIETYLEHNEGAGVQHLALVTHDIFTTLREMRKRSFLGGFEFMPSPPPTYYANLHNCAADVLTVDQIKQCEELGIMVDRDDQGTLLQIFTKPVGDRPTIFIEIIQRIGCMVEDEEGKVYQKGACGGFGKGNFGELFKSIEEYEKTLEAKRTAGLTVNS
modifications: HPPD variant
Soybean HPPD; soy HPPD, wt and improved
  Km: 14 µM
  kcat: 13
G. max HPPD; Mesotrione
  OFF ratio: 0.219
  ON ratio: 0.444
  ON × OFF Fold vs wt: 2.41
  ON × OFF Value: 0.097
G. max HPPD; Tembotrione
  OFF ratio: 0.070
  ON ratio: 0.321
  ON × OFF Fold vs wt: 5.10
  ON × OFF Value: 0.0224
G. max HPPD; mesotrione
  improvement of insensitivity vs native protein: 2.41 fold
G. max HPPD; tembotrione
  improvement of insensitivity vs native protein: 5.10 fold

B3: Maize wt: synthetic maize wild-type HPPD protein, SEQ ID NO: 1, expressed in E. coli (protein)
chain: MGPTPTAAAAGAAVAAASAAEQAAFRLVGHRNFVRFNPRSDRFHTLAFHHVELWCADAASAAGRFSFGLGAPLAARSDLSTGNSAHASLLLRSGSLSFLFTAPYAHGADAATAALPSFSAAAARRFAADHGLAVRAVALRVADAEDAFRASVAAGARPAFGPVDLGRGFRLAEVELYGDVVLRYVSYPDGAAGEPFLPGFEGVASPGAADYGLSRFDHIVGNVPELAPAAAYFAGFTGFHEFAEFTTEDVGTAESGLNSMVLANNSENVLLPLNEPVHGTKRRSQIQTFLDHHGGPGVQHMALASDDVLRTLREMQARSAMGGFEFMAPPTSDYYDGVRRRAGDVLTEAQIKECQELGVLVDRDDQGVLLQIFTKPVGDRPTLFLEIIQRIGCMEKDEKGQEYQKGGCGGFGKGNFSQLFKSIEDYEKSLEAKQAAAAAAAQGS
modifications: Zea mays
Maize HPPD [1]; N-terminal truncated variants of maize wild-type HPPD, single measurement
  kcat: 2.77 s⁻¹
Maize HPPD [1]; [3]
  Km: 5.2 µM
  kcat: 3.45 s⁻¹
Maize HPPD [1]; substrate HPP, E. coli-expressed enzyme, listed as wild type
  kcat: about 220 min^−1
Maize HPPD [2]; Isoxaflutole (diketonitrile)
  Insensitivity parameter (ON rate ratio × OFF rate ratio) relative to that of maize wild-type HPPD: 1.0
Maize HPPD [2]; Sulcotrione
  Insensitivity parameter (ON rate ratio × OFF rate ratio) relative to that of maize wild-type HPPD: 1.0
Maize HPPD [2]; Topramezone
  Insensitivity parameter (ON rate ratio × OFF rate ratio) relative to that of maize wild-type HPPD: 1.0
Maize HPPD [2]; inhibitor Isoxaflutole (diketonitrile)
  Triple product (ON rate ratio × OFF rate ratio × kcat), relative to that of maize wild-type HPPD: 1.0
Maize HPPD [2]; inhibitor Mesotrione
  Triple product (ON rate ratio × OFF rate ratio × kcat), relative to that of maize wild-type HPPD: 1.0
Maize HPPD [2]; inhibitor Sulcotrione
  Triple product (ON rate ratio × OFF rate ratio × kcat), relative to that of maize wild-type HPPD: 1.0
Maize HPPD [2]; inhibitor Tembotrione
  Triple product (ON rate ratio × OFF rate ratio × kcat), relative to that of maize wild-type HPPD: 1.0
Maize HPPD [2]; inhibitor Topramezone
  Triple product (ON rate ratio × OFF rate ratio × kcat), relative to that of maize wild-type HPPD: 1.0
Maize HPPD [2]; mesotrione
  Insensitivity parameter (ON rate ratio × OFF rate ratio) relative to that of maize wild-type HPPD: 1.0
  ON × OFF × kcat: 9.88
  Vmax MT (maximum reaction rate attained with mesotrione in the determination of OFF rate ratio): 52 min⁻¹
  insensitivity parameter (ON rate ratio × OFF rate ratio): 0.049
Maize HPPD [2]
  ON rate ratio: 0.2
Maize HPPD [2]; listed as WT
  ON rate ratio: 0.19
Maize HPPD [2]; mesotrione, pre-formed enzyme-inhibitor complex
  OFF rate ratio: 0.26
Maize HPPD [2]; release of mesotrione from pre-formed complex, enzyme 240 nM
  time span to attain steady state in OFF rate reaction: 280 s
Maize HPPD [2]; tembotrione
  Insensitivity parameter (ON rate ratio × OFF rate ratio) relative to that of maize wild-type HPPD: 1.0
T0 soybean plants
  tolerance to mesotrione in T0 soybean plants: moderate tolerance
